Experiment [1] has as its target T1, His-tagged human HtrA1 protease domain (human, UniProt Q92743 161-367).
T1 construct: His-tagged protease domain; also called huHtrA1-PD-His; huHtrA1-PD
The experiment can be described thus: BIACORE T200 SPR; Fab analyte over huHtrA1-PD-His captured by anti-His antibody. Here is the method:
(§1) To determine the binding affinity of selected Fab variants for HtrA1, SPR measurement with a BIACORE™ T200 instrument was performed. Briefly, a series S sensor chip CM5 was activated with 1-EDC and NHS reagents according to the supplier's instructions, and anti-His antibody was coupled to achieve 200-300 response units (RU), then following by blocking un-reacted groups with 1 M ethanolamine. For kinetics measurements, approximately 5 nM of huHtrA1-PD-His was first injected at 10 μl/min flow rate to capture approximately 100 RU at 2 different flow cells (FC), except for FC1 (which served as a reference). Next, 5-fold serial dilutions of Fab in HBS-P buffer (0.01M HEPES pH 7.4, 0.15M NaCl, 0.005% surfactant P20) from low (0.8 nM) to high (50 nM) were injected (flow rate: 30 μl/min). The binding responses on HtrA1 were corrected by subtracting of RU from a blank flow cell. The sensorgram was recorded and subject to reference and buffer subtraction before evaluating by BIACORE® T200 Evaluation Software (version 2.0). Association rates (kₒₙ) and dissociation rates (koff) were calculated using a simple one-to-one Langmuir binding model. The equilibrium dissociation constant (KD) was calculated as the ratio of koff/kₒₙ.

In experiment [2] the target is T1, His-tagged human HtrA1 protease domain. The experiment is described as follows: SPR (BIACORE T200), huHtrA1-PD-His captured by anti-His, Fab injected. The protocol: These combination mutants included both a variant light chain and a variant heavy chain. BIACORE™ kinetic analysis was performed (as described below in Section C) using the combination mutants.
as §1

Experiment [3] has the same target. The description is as above. The protocol:
as §1
This is another data set of the same source.

Where a chain is given by its changes, count along the chain named. Numbers in names are those of the source.

T1 sequence (Q92743 other isoform, or with tags, fused parts or gaps limits assumed): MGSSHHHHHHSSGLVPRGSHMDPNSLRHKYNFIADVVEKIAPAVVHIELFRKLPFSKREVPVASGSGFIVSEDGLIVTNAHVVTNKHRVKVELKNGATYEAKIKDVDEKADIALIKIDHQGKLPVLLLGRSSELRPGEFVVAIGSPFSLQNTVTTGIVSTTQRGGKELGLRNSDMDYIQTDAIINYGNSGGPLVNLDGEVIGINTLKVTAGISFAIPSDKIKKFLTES

B1: APEG.LC3.HC1 (Fab, V domains shown)
VH: EVQLVQSGAEVKKPGASVKVSCKASGYTFKDSEMHWVRQAPGQGLEWIGGVDPETEGAAYNQKFKGRATITRDTSTSTAYLELSSLRSEDTAVYYCTRGYDYDYALDYWGQGTLVTVSS
VL: DIQMTQSPSSLSASVGDRVTITCRASSSVEFIHWYQQKPGKAPKPLISATSNLASGVPSRFSGSGSGTDFTLTISSLQPEDFATYYCQQWSSAPWTFGQGTKVEIK
notes: single member of the group m82
In the case of B1, in experiment [1], binding was characterised by a dissociation constant (Kd) of 0.106 nM, the koff was 4.55e-05 s⁻¹ and the on-rate (kon) was 428000 M⁻¹ s⁻¹.

B2: combination mutant LC7.HC1 Fab (Fab, V domains shown)
VH: B1 VH with E56D
VL: B1 VL with E30N, S91Y, A93N
notes: Fab
In the case of B2, in experiment [2], the Kd is 0.772 nM, the koff was 0.000267 s⁻¹ and the kon was 347000 M⁻¹ s⁻¹.

B3: h15H6.v2 variant LC3 (LC-N31E) Fab (Fab, V domains shown)
VH: B1 VH with K30T, E56D
VL: B1 VL with A93N
notes: Fab-Flag tag fusion from 293T cells
As to B3, in experiment [3], the Kd is 0.48 nM, the koff turned out to be 0.00013 s⁻¹ and the kon was 270000 M⁻¹ s⁻¹. In addition, in experiment [2], the equilibrium dissociation constant (Kd) came to 0.905 nM, the koff was 0.000115 s⁻¹ and the kon was 127000 M⁻¹ s⁻¹.

B4: combination mutant LC5.HC1 Fab (Fab, V domains shown)
VH: B1 VH with E56D
VL: B1 VL with E30N, N52E, A93N
notes: Fab
For the molecule B4, in experiment [2], the Kd came to 1.1 nM, the koff came to 0.00023 s⁻¹ and the kon turned out to be 208000 M⁻¹ s⁻¹.

B5: h15H6.v2 variant LC8 (LC-S92K) Fab (Fab, V domains shown)
VH: B1 VH with K30T, E56D
VL: B1 VL with E30N, S91K, A93N
notes: as for B3
On to B5, for which, in experiment [3], the Kd was determined as 1.16 nM, the koff turned out to be 0.000397 s⁻¹ and the kon turned out to be 343000 M⁻¹ s⁻¹.

B6: combination mutant LC5.HC3 Fab (Fab, V domains shown)
VH: B1 VH with T28K, K30T, E56D
VL: B1 VL with E30N, N52E, A93N
notes: Fab
On to B6, for which, in experiment [2], the Kd came to 1.08 nM, the koff was 0.000251 s⁻¹ and the kon worked out at 233000 M⁻¹ s⁻¹.

B7: combination mutant LC7.HC3 Fab (Fab, V domains shown)
VH: B1 VH with T28K, K30T, E56D
VL: B1 VL with E30N, S91Y, A93N
notes: Fab
B7: in experiment [2], the Kd amounted to 0.335 nM, the koff is 0.000237 s⁻¹ and the kon turned out to be 709000 M⁻¹ s⁻¹.

B8: h15H6.v2 variant LC7 (LC-S92Y) Fab (Fab, V domains shown)
VH: B1 VH with K30T, E56D
VL: B1 VL with E30N, S91Y, A93N
notes: as for B3
In experiment [3], B8 had a Kd of 0.335 nM, a koff of 0.000193 s⁻¹ and a kon of 578000 M⁻¹ s⁻¹. Further, in experiment [2], the Kd came out at 1.37 nM, the koff was 0.000188 s⁻¹ and the kon stood at 137000 M⁻¹ s⁻¹.

B9: APEG.LC37.HC23 (Fab, V domains shown)
VH: B1 VH with T28K, K30R
VL: B1 VL with S91Y
notes: as for B1
In experiment [1], B9 had a Kd of 0.146 nM, a koff of 6.41e-05 s⁻¹ and a kon of 438000 M⁻¹ s⁻¹.

B10: h15H6.v2 variant LC9 (LC-S93I) Fab (Fab, V domains shown)
VH: B1 VH with K30T, E56D
VL: B1 VL with E30N, S92I, A93N
notes: as for B3
In experiment [3], B10 registered a Kd of 2.15 nM, a koff of 0.000404 s⁻¹ and a kon of 188000 M⁻¹ s⁻¹.

B11: combination mutant LC5.HC2 Fab (Fab, V domains shown)
VH: B1 VH with K30R, E56D
VL: B1 VL with E30N, N52E, A93N
notes: Fab
B11: in experiment [2], the Kd turned out to be 0.719 nM, the koff was found to be 0.000211 s⁻¹ and the kon was 294000 M⁻¹ s⁻¹.

B12: APEG.LC7.HC3 (Fab, V domains shown)
VH: B1 VH with T28K, K30T
VL: B1 VL with E30N, S91Y
In experiment [1], B12 gave a Kd of 0.332 nM, a koff of 7.93e-05 s⁻¹ and a kon of 239000 M⁻¹ s⁻¹.

B13: h15H6.v2 variant LC10 (LC-F32V, LC-S92K) Fab (Fab, V domains shown)
VH: B1 VH with K30T, E56D
VL: B1 VL with E30N, F31V, S91K, A93N
notes: as for B3
For the molecule B13, in experiment [3], the Kd was 8.42 nM, the koff worked out at 0.00213 s⁻¹ and the kon is 253000 M⁻¹ s⁻¹.

B14: APEG.LC7.HC1 (Fab, V domains shown)
VH: B1 VH
VL: B1 VL with E30N, S91Y
In experiment [1], B14 returned an equilibrium dissociation constant (Kd) of 0.137 nM, a koff of 2.75e-05 s⁻¹ and a kon of 200000 M⁻¹ s⁻¹.

B15: combination mutant LC4.HC1 Fab (Fab, V domains shown)
VH: B1 VH with E56D
VL: B1 VL with E30N, N52H, A93N
notes: Fab
Take B15: in experiment [2], the Kd amounted to 0.852 nM, the koff came out at 0.000228 s⁻¹ and the kon is 268000 M⁻¹ s⁻¹.

B16: APEG.LC37.HC13 (Fab, V domains shown)
VH: B1 VH with T28K
VL: B1 VL with S91Y
notes: as for B1
On to B16, for which, in experiment [1], the Kd came to 0.095 nM, the koff was 4.09e-05 s⁻¹ and the kon came out at 431000 M⁻¹ s⁻¹.

B17: combination mutant LC3.HC5 Fab (Fab, V domains shown)
VH: B1 VH with K30T, M34L, E56D
VL: B1 VL with A93N
notes: Fab
Consider B17, for which, in experiment [2], the Kd turned out to be 0.176 nM, the koff turned out to be 0.000102 s⁻¹ and the kon stood at 577000 M⁻¹ s⁻¹.

B18: APEG.LC3.HC2 (Fab, V domains shown)
VH: B1 VH with K30R
VL: B1 VL
For the molecule B18, in experiment [1], binding was put at a Kd of 0.117 nM, the koff is 4.08e-05 s⁻¹ and the kon was determined as 350000 M⁻¹ s⁻¹.

B19: combination mutant LC3.HC3 Fab (Fab, V domains shown)
VH: B1 VH with T28K, K30T, E56D
VL: B1 VL with A93N
notes: Fab
On to B19, for which, in experiment [2], the Kd worked out at 0.0616 nM, the koff came out at 4.93e-05 s⁻¹ and the kon was 801000 M⁻¹ s⁻¹.

B20: APEG.LC7.HC2 (Fab, V domains shown)
VH: B1 VH with K30R
VL: B1 VL with E30N, S91Y
In experiment [1], B20 had a Kd of 0.309 nM, a koff of 6.6e-05 s⁻¹ and a kon of 213000 M⁻¹ s⁻¹.

B21: combination mutant LC7.HC2 Fab (Fab, V domains shown)
VH: B1 VH with K30R, E56D
VL: B1 VL with E30N, S91Y, A93N
notes: Fab
On to B21, for which, in experiment [2], the Kd came to 0.0955 nM, the koff was 0.000189 s⁻¹ and the kon was found to be 1.97e+06 M⁻¹ s⁻¹.

B22: combination mutant LC4.HC2 Fab (Fab, V domains shown)
VH: B1 VH with K30R, E56D
VL: B1 VL with E30N, N52H, A93N
notes: Fab
As to B22, in experiment [2], the Kd amounted to 7.98 nM, the koff was 0.000222 s⁻¹ and the kon amounted to 27800 M⁻¹ s⁻¹.

B23: combination mutant LC4.HC5 Fab (Fab, V domains shown)
VH: B1 VH with K30T, M34L, E56D
VL: B1 VL with E30N, N52H, A93N
notes: Fab
As to B23, in experiment [2], the Kd amounted to 1.4 nM, the koff amounted to 0.000297 s⁻¹ and the kon came to 212000 M⁻¹ s⁻¹.

B24: combination mutant LC4.HC3 Fab (Fab, V domains shown)
VH: B1 VH with T28K, K30T, E56D
VL: B1 VL with E30N, N52H, A93N
notes: Fab
Consider B24, for which, in experiment [2], the Kd is 2.18 nM, the koff stood at 0.00024 s⁻¹ and the association rate constant (kon) was found to be 110000 M⁻¹ s⁻¹.

B25: combination mutant LC7.HC5 Fab (Fab, V domains shown)
VH: B1 VH with K30T, M34L, E56D
VL: B1 VL with E30N, S91Y, A93N
notes: Fab
With B25, in experiment [2], the Kd was found to be 0.745 nM, the koff came to 0.000303 s⁻¹ and the kon was 406000 M⁻¹ s⁻¹.

B26: combination mutant LC5.HC5 Fab (Fab, V domains shown)
VH: B1 VH with K30T, M34L, E56D
VL: B1 VL with E30N, N52E, A93N
notes: Fab
Take B26: in experiment [2], the Kd stood at 0.877 nM, the koff is 0.000296 s⁻¹ and the kon is 337000 M⁻¹ s⁻¹.

B27: h15H6.v2 variant LC6 (LC-Q89H) Fab (Fab, V domains shown)
VH: B1 VH with K30T, E56D
VL: B1 VL with E30N, Q88H, A93N
notes: as for B3
For the molecule B27, in experiment [3], binding was put at a Kd of 0.642 nM, the koff was 0.000251 s⁻¹ and the kon amounted to 390000 M⁻¹ s⁻¹.

B28: combination mutant LC3.HC2 Fab (Fab, V domains shown)
VH: B1 VH with K30R, E56D
VL: B1 VL with A93N
notes: Fab
As to B28, in experiment [2], the equilibrium dissociation constant (Kd) turned out to be 0.302 nM, the koff was 0.000109 s⁻¹ and the kon was 362000 M⁻¹ s⁻¹.

The values above are taken from patent US20170145113A1 (Genentech, published 2017).
